Assay results published in paper PMC9646525, “Cryo-EM structure of the SEA complex” (Nature, 2022).

How the values were obtained:
Sea3 = biological target: T1, Sea3 (S. cerevisiae (endogenous in yeast …, UniProt Q03897 1-1148)); test: co-IP; Sea4-TAP captured from cleared yeast lysate on IgG-coupled Dynabeads, washed, eluted with TEV protease, Coomassie-stained SDS-PAGE; 4 °C, 20 mM HEPES-NaOH pH 7.4, 300 mM NaCl, 5 mM CHAPS, 10% glycerol; wild-type, ΔNpr3, Npr2^R84A and Sea1^R943A strains; conditions: partners not purified
T1 construct: Sea3, S. cerevisiae, endogenous subunit of the SEAC; Sea3^SIP (Sea3^Nter) lies in the wing, Sea3^SAP (Sea3^Cter) in the core; Native protein of the purified complex; two copies in the SEAC; source: endogenous, yeast cells expressing Sea4-TAP; in lysate and co-purified with Sea4-TAP (IgG Dynabeads, TEV elution)
T1 sequence (looked up): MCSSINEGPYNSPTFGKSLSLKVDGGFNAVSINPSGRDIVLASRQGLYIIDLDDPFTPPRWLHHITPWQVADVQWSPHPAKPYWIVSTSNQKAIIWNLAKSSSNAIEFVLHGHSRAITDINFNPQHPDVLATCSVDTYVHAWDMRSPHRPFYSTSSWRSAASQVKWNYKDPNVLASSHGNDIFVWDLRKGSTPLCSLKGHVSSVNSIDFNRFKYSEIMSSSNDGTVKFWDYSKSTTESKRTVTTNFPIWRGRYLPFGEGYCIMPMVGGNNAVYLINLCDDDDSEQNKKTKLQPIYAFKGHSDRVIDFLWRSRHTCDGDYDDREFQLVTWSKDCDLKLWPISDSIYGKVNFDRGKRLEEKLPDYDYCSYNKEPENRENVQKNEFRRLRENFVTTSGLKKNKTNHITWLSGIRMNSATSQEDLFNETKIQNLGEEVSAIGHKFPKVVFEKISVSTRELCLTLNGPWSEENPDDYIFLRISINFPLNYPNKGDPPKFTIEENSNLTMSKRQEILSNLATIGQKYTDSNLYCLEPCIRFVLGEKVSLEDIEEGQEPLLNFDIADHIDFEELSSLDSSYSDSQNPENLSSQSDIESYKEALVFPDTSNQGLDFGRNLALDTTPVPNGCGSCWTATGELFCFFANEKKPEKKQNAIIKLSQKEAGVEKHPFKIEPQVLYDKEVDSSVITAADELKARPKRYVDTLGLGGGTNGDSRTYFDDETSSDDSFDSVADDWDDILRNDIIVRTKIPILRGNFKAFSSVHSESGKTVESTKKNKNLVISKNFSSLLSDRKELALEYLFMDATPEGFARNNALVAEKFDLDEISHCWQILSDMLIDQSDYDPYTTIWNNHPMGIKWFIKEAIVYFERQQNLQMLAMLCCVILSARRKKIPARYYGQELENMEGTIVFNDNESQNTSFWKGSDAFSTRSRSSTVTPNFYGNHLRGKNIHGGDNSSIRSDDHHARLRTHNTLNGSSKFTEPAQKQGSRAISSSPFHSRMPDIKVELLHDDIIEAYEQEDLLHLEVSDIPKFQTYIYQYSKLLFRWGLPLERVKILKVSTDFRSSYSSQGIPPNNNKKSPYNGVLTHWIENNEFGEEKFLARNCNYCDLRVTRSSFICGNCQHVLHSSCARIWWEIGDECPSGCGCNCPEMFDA

Sea2 = biological target: T2, Sea2 (S. cerevisiae (endogenous in yeast …, UniProt Q08281 1-1341)); test: as above; conditions: partners not purified
T2 construct: Sea2, S. cerevisiae, endogenous subunit of the SEAC (SEACAT, core); Native protein of the purified complex; two copies in the SEAC; source: endogenous, yeast cells expressing Sea4-TAP; in lysate and co-purified with Sea4-TAP (IgG Dynabeads, TEV elution)
T2 sequence (looked up): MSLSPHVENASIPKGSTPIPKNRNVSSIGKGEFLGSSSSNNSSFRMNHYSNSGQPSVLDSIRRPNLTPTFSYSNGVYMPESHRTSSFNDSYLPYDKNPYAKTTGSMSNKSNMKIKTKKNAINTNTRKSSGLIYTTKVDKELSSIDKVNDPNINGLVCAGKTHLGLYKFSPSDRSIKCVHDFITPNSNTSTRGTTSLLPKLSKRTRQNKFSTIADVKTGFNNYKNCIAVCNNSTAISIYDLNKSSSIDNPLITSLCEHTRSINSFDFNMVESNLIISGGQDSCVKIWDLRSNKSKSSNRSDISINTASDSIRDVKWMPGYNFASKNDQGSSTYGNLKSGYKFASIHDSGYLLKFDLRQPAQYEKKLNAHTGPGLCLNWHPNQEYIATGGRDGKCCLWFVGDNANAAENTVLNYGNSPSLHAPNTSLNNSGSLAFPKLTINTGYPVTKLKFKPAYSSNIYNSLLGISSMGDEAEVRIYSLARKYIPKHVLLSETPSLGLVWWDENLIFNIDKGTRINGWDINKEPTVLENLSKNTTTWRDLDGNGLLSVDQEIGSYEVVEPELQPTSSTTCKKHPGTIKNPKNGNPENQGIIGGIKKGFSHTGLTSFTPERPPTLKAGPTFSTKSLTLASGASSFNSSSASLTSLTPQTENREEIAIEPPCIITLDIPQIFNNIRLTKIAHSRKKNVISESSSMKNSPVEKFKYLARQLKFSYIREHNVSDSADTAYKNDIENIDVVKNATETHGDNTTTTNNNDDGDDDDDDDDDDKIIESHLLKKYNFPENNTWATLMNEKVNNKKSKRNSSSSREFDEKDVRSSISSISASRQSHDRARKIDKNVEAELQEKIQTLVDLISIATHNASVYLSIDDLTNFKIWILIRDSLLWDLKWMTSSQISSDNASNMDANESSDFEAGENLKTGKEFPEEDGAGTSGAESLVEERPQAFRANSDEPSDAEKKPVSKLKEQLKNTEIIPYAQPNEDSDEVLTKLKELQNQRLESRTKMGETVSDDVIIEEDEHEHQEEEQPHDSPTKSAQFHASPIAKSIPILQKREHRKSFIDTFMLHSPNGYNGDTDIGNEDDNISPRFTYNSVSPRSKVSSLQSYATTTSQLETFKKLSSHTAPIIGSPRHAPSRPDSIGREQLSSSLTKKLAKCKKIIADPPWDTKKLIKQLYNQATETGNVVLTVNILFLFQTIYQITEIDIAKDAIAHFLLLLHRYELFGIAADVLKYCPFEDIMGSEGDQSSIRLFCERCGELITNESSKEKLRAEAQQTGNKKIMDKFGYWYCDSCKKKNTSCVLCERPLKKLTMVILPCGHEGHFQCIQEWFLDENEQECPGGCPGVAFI

B1: Sea4-TAP (natural protein, UniProt P38164 1-1038, looked up)
chain: MGLIKKVTHWSYDNLIDYLSVNPTRDEVTHYKVDPENESDESIIKLHTVKDFGSITCLDYSESEIGMIGVGEKNGYLRIFNISGQNSSSPASHAPVGLNANNETSMTNASGGKAAQAENIVGSVSNLKDTQGYPVSETNYDIRVRAKKQRCINSLGINTNGLIAMGLDRNKHDSSLQIWDMNYHDDSHETINPMFSYCTNESIVSLKFLNDTSVLAASTKFLKEIDVRSPNPIYQHPTRLTYDIKLNPFNDWQFSTYGDDGTLAIWDRRKLSDQASLGDLNVASPLLTFEKLVGSGAASRKYMNSCFRWSCVRNNEFATLHRGDTIKRWRLGYYCDSNRDIAADDDNEMNIENLFVSSVHDTNTMYDRVATFDYIPRSNNGTSLICMRQSGTIYRMPISEVCSKAILNNRNSLLLSNFENTEIDEIRVNNEHEKSNLENVKTILKNLSFEDLDVSEDYFPSGHDEPNNEIEYSELSEEENEGSNDVLDSKRGFELFWKPEKLLEKDISVIMRTRASLGYGLDPMNTVEMIDSSKNLQNNAYIRNTWRWIAIAKASVDDGTMVSGDLDLGYEGVIGIWNGINGISNQDRYRQETILSDKQLNKEMEKIIKLRRKNRDRNSPIANAAGSPKYVQRRLCLIISGWDLSRSDYEDKYNIIMKNGHYEKAAAWAVFFGDIPKAVEILGSAKKERLRLIATAIAGYLAYKDLPGNNAWRQQCRKMSSELDDPYLRVIFAFIADNDWWDILYEPAISLRERLGVALRFLNDTDLTTFLDRTSSTVIENGELEGLILTGITPNGIDLLQSYVNKTSDVQSAALISIFGSPRYFRDQRVDEWIQTYRDMLKSWELFSMRARFDVLRSKLSRTKTGVLTADIKPRQIYIQCQNCKQNINTPRTSSPSSAVSTSAGNYKNGEAYRRNNADYKKFNTGSSEAQAADEKPRHKYCCPHCGSSFPRCAICLMPLGTSNLPFVINGTQSRDPMQTEDSQDGANRELVSRKLKLNEWFSFCLSCNHGMHAGHAEEWFDRHNVCPTPGCTCQCNK
notes: Sea4, S. cerevisiae, endogenous subunit of the SEAC (SEACAT, core), TAP-tagged; Captured by the TAP tag on IgG beads; the complex was released with TEV protease before SDS-PAGE and cryo-EM; Written 'Sea4-TAP'; Four copies in the SEAC; source: endogenous, yeast cells expressing Sea4-TAP; in lysate, purified on IgG-coupled Dynabeads and eluted with TEV protease
- binding result (Sea3): binds
- binding result (Sea2): binds
